The results in this text go back to the supplement of paper PMC9170038.

The test system of the data set is MS2 coat protein. Briefly: apparent KD of MS2 coat protein; designed switch direction (-1 OFF switch, 1 ON switch): 1; higher = weaker reporter binding. In outline: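 The reported apparent KD is a per-design median over clusters, from curve fits of normalised cluster fluorescence. Protein titrations used SNAP-549-labelled MS2 coat protein, doubled from 0.7 or 1.5 nM to 3 µM, in Tris-HCl pH 7.5 buffer with KCl, MgCl2, BSA, DTT, tRNA and Tween-20, with no input, 200 uM small-molecule ligand, or an oligonucleotide input. The RNA switches were transcribed on Illumina chips by stalled E. coli RNA polymerase.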

Setting [1] is: Eterna round: R95, input ligand: FMN 200 uM.
Setting [2] is: Eterna round: R95, input ligand: microRNA oligo, concentration not stated.
Setting [3] is: Eterna round: R95, input ligand: none.
Where [4] appears, read: input ligand: microRNA oligo, concentration not stated.

Take “GGUCCAGCCUGAGCUGGACUACAGCAUGUACAUGAGGAUCACCCAUGUCAUGUACAUGCUUUUUGUUUGUCUUAAAA [Sensorship 10 - Jieux - Sensor for hsa-mir-208a] (puzzle: Sensor for hsa-mir-208a)”: the “apparent KD of MS2 coat protein” value under setting [1] came to 20.2 nM, the “apparent KD of MS2 coat protein” value under setting [2] turned out to be 38.8 nM and the “apparent KD of MS2 coat protein” value under setting [3] is 24.6 nM.

As for “GGUCCAUCAUGAGGAUAUGGCACCUUAUUGGUGCCAGAAGGCAUGUAAAUUAUAAUAAAUACAUGAGGAUCACCCAUGUGGACC [Eli NG1ss - 98] (Eterna round: R96, puzzle: Same State NG 1)”, the “apparent KD of MS2 coat protein” value came out at 1230 nM (input ligand: FMN 200 uM), 80.2 nM under setting [4] and 407 nM (input ligand: none).

Turning to “GGUCCGGCCUGAGCUGGACCGAGGCAUGUACAUGAGGAUCACCCAUGUUCAUGUGCAGGCUUUUUGCUCGUCUUGUG [JL-shm-2.06 JL mod] (puzzle: Sensor for hsa-mir-208a)”, the “apparent KD of MS2 coat protein” value is, setting by setting: under setting [1], 49.6 nM; under setting [2], 11 nM; under setting [3], 50.6 nM.

Turning to “GGUCGAAACCACAUGAGGAUCACCCAUGUUCCGGAAACGGCGCAGGAUAUCUGUCCGAAAAGGUCAGAGAAGGGUGAAACGACC [Fiskers NG3ss - 79] (Eterna round: R96, puzzle: Same State NG 3)”, the “apparent KD of MS2 coat protein” value runs as follows: (input ligand: FMN 200 uM) 546 nM; under setting [4], 699 nM; (input ligand: none) 944 nM.

As for “GGUCGGACAUGAGGAUCACCCAUGUGGUGACCGGAAACGGCAUAGGAUAUCUGUCCGAAAAGGUCAGAGAAGGGUGAACCGACC [Fiskers NG3ss - 69] (Eterna round: R96, puzzle: Same State NG 3)”, the “apparent KD of MS2 coat protein” value by setting is: (input ligand: FMN 200 uM) 160 nM; under setting [4], 15.5 nM; (input ligand: none) 126 nM.

For “GGUGCAAUAAACGCCUACAUGAGGAUCACCCAUGUAUGUAGGCAGGAUAUCGUAUGCAAAGCAUACGAGAAGGGCUAUAGUACC [Mat - Same State NG 3 - JL Mod - D45] (Eterna round: R96, puzzle: Same State NG 3)”, the “apparent KD of MS2 coat protein” value (input ligand: FMN 200 uM) came out at 57.1 nM, the “apparent KD of MS2 coat protein” value under setting [4] stood at 124 nM and the “apparent KD of MS2 coat protein” value (input ligand: none) is 146 nM.

With “GGUGCAAUAAACGCCUACAUGAGGAUCACCCAUGUAUGUAGGCAGGAUAUCGUAUGCAAAGCAUACGAGAAGGGCUGUAGUACC [Mat - Same State NG 3 - JL Mod - D42] (Eterna round: R96, puzzle: Same State NG 3)”, the “apparent KD of MS2 coat protein” value was determined as 53.7 nM (input ligand: FMN 200 uM), 116 nM under setting [4] and 118 nM (input ligand: none).

On to “GGUGCAAUUAACGCCUACAUGAGGAUCACCCAUGUAUGUAGGCAGGAUAUCGUUUGCUUUGCAAACGAGAAGGGCUGUAGUACC [JL SSNG3 1.14] (Eterna round: R96, puzzle: Same State NG 3)”, for which the “apparent KD of MS2 coat protein” value was found to be 35.6 nM (input ligand: FMN 200 uM), 89.3 nM under setting [4] and 84.5 nM (input ligand: none).

On to “GGUGGGUUGCUGCCGGCACAUGAGGAUCACCCAUGUUUUGGGAAGGAUAUGGUACCUUUUUGGUGCCAGAAGGUCCCGUUGGUG [salish99_SSNG3_r04_712 large U pivot] (Eterna round: R96, puzzle: Same State NG 3)”, for which, under setting [4], the “apparent KD of MS2 coat protein” value is 350 nM.

With “GGUUUAGUCAGGUACAGUUGCACCUGAAAACAUGAGGAUCACCCAUGUUUGGGACAAGCUUUGCUCCUCGUCUUGCC [Ralausen] (puzzle: Sensor for hsa-mir-208a)”, the “apparent KD of MS2 coat protein” value under setting [1] was determined as 101 nM, the “apparent KD of MS2 coat protein” value under setting [2] came out at 77.6 nM and the “apparent KD of MS2 coat protein” value under setting [3] worked out at 152 nM.

“GGUUUAGUCGAGUACCGUUCCACUCGAAAACAUGAGGAUCACCCAUGUUUGGGACAAGCUUUGCUCCUCGUCUUUCC [Inardiza] (puzzle: Sensor for hsa-mir-208a)”: the “apparent KD of MS2 coat protein” value came to 29.6 nM under setting [1], 64.8 nM under setting [2] and 36.6 nM under setting [3].

With “GUAAAGAAUUAAGGAUAUUGAAUACAUAUGUUUAACAUGAGGAUCACCCAUGUGGGUUGCGGUAUCGAGAAGGUAAAAUAAAAG [Mat - Same State NG 2 - JL mod - D7] (Eterna round: R96, puzzle: Same State NG 2)”, the “apparent KD of MS2 coat protein” value came out at 137 nM (input ligand: FMN 200 uM), 105 nM under setting [4] and 124 nM (input ligand: none).

Consider “GUAAAGAAUUAAGGAUAUUGAUUACAUAUGUUUAACAUGAGGAUCACCCAUGUGGGUUGCGGUAUCGAGAAGGUAAAAUAAUAG [Mat - same State NG 2 - JL mod - D86] (Eterna round: R96, puzzle: Same State NG 2)”, for which the “apparent KD of MS2 coat protein” value (input ligand: FMN 200 uM) stood at 190 nM, the “apparent KD of MS2 coat protein” value under setting [4] is 131 nM and the “apparent KD of MS2 coat protein” value (input ligand: none) was found to be 174 nM.

“GUAAGUUUGAUGCUCGUCUCUCCGUACAAACAUGAGGAUCACCCAUGUGGUCGGGAAGUAGCCCGGCCAGUAUGGCC [Rerire] (puzzle: Sensor for hsa-mir-208a)”: the “apparent KD of MS2 coat protein” value was 24.8 nM under setting [1], 21.4 nM under setting [2] and 26.8 nM under setting [3].

“GUAAUACAUGAGGAUCACCCAUGUCAAUGUAGUCGAGGAUAUGGGUAGCUAUGAGGCGUUCUAGAAGGCGACGAGC [Same State 1 - Mod of Vinnie Teenbexe v.3] (puzzle: Same State 1)”: the “apparent KD of MS2 coat protein” value under setting [1] turned out to be 273 nM, the “apparent KD of MS2 coat protein” value under setting [2] worked out at 151 nM and the “apparent KD of MS2 coat protein” value under setting [3] was determined as 52.2 nM.

With “GUAAUCGUUAUAGGAUAUCAUGAGGAUUACCCAUGAGAAGGGUGAUUCCGAUCCAUAUUCAGAAAAUGAAUGUGGAUAGAUUGC [Omei NG1 A v1] (Eterna round: R96, puzzle: Same State NG 1)”, the “apparent KD of MS2 coat protein” value by setting is: (input ligand: FMN 200 uM) 123 nM; under setting [4], 117 nM; (input ligand: none) 260 nM.

With “GUACAAAUCAUAGGAUAUGGGCGGGAAUGCCGUCCAGAAGGAUGAACAUGAGGAUCACCCAUGUCCGGCCACAAAUACGCGGCC [Bientela] (Eterna round: R96, puzzle: Same State NG 1)”, the “apparent KD of MS2 coat protein” value is 72.3 nM (input ligand: FMN 200 uM), 104 nM under setting [4] and 161 nM (input ligand: none).

As for “GUACAGAUUAUAGGAUAUCACGUCGAAUAGACGUGAGAAGGAUAAUCACACAUGAAUAUUAAUACAUGAGGAUCACCCAUGUAC [SSNG1/17-A1] (Eterna round: R96, puzzle: Same State NG 1)”, the “apparent KD of MS2 coat protein” value is 16.7 nM (input ligand: FMN 200 uM), 12.9 nM under setting [4] and 17.1 nM (input ligand: none).

As to “GUACAUAUCAGAGGAUAUCACGUCGAUUAGACGUGAGAAGGCUGAUCACACAUGAAUAUUAAUACAUGAGGAUCACCCAUGUAC [SSNG1/13-A2] (Eterna round: R96, puzzle: Same State NG 1)”, the “apparent KD of MS2 coat protein” value amounted to 16.9 nM (input ligand: FMN 200 uM), 28.5 nM under setting [4] and 37.2 nM (input ligand: none).

For “GUACUACAUGAGGAUCACCCAUGUUACCUUCACGGAGGAUAUAGGAAAUGAGGUGAGAUGCUAGAAGGCCGAGGAA [Candy Rainbow 4] (puzzle: Same State 1)”, the “apparent KD of MS2 coat protein” value under setting [1] was 102 nM, the “apparent KD of MS2 coat protein” value under setting [2] is 78.3 nM and the “apparent KD of MS2 coat protein” value under setting [3] was found to be 95.9 nM.

Regarding “GUAGAAUAACUAGAGGAUAUCCGAGUGGUAACAUGAGGAUCACCCAUGUGAUGAAAGGAACAUGAGGAGAAGGCUAGAAGUAAUG [Mat - Same State 2 - Mod of JL - D81] (puzzle: Same State 2)”, the “apparent KD of MS2 coat protein” value reads like this: under setting [1], 17.5 nM; under setting [2], 61.1 nM; under setting [3], 48.1 nM.

With “GUAGAUAUAACGCAGGAUAUUCAAUGAGAGACAUGAGGAUCACCCAUGUGAGAGUGAGAUGAUAGGAAGAAGGGUGAGAGAGAUG [Altered State 2-8 - Jieux - Same State 2] (puzzle: Same State 2)”, the “apparent KD of MS2 coat protein” value reads like this: under setting [1], 107 nM; under setting [2], 124 nM; under setting [3], 122 nM.

“GUAGCAUACCGAGGAUAUUCAACAUGAGGAUCACCCAUGUGUUUGUUAUAGGCCAAAAGGCCUUGGGAGAAGGCGGAAUGCUAC [Xeonanis - 20 Mod16] (Eterna round: R96, puzzle: Same State NG 2)”: the “apparent KD of MS2 coat protein” value runs as follows: (input ligand: FMN 200 uM) 9.03 nM; under setting [4], 9.65 nM; (input ligand: none) 12.9 nM.

Turning to “GUAGCAUACCGAGGAUAUUCAUAUUAACAUGAGGAUCACCCAUGUAUUUAGGCCAAAAGGCCUUGGGAGAAGGCGGAAUGCUAC [Xeonanis - 20 Mod7] (Eterna round: R96, puzzle: Same State NG 2)”, the “apparent KD of MS2 coat protein” value (input ligand: FMN 200 uM) was 17.5 nM, the “apparent KD of MS2 coat protein” value under setting [4] is 22.3 nM and the “apparent KD of MS2 coat protein” value (input ligand: none) turned out to be 29.4 nM.

Regarding “GUAGCAUACCGAGGAUAUUCAUAUUACAUGAGGAUCACCCAUGUUAUAGGCCGAUUACGGCCUUGGGAGAAGGCGGAAUGCUAC [Xeonanis - 20 Mod24] (Eterna round: R96, puzzle: Same State NG 2)”, the “apparent KD of MS2 coat protein” value turned out to be 17.4 nM (input ligand: FMN 200 uM), 38.1 nM under setting [4] and 37.6 nM (input ligand: none).

Regarding “GUAGCAUACCGAGGAUAUUCAUAUUAUAAACAUGAGGAUCACCCAUGUGGCCGAUUACGGCCUUGGGAGAAGGCGGAAUGCUAC [Xeonanis - 20 Mod17] (Eterna round: R96, puzzle: Same State NG 2)”, the “apparent KD of MS2 coat protein” value runs as follows: (input ligand: FMN 200 uM) 44.6 nM; under setting [4], 641 nM; (input ligand: none) 909 nM.

“GUAGCAUACCGAGGAUAUUCAUAUUAUAAACAUGAGGAUCACCCAUGUGGUCGAUUACGACCUUGGGAGAAGGCGGAAUGCUAC [Xeonanis - 20 Mod36] (Eterna round: R96, puzzle: Same State NG 2)”: the “apparent KD of MS2 coat protein” value (input ligand: FMN 200 uM) was determined as 46.4 nM, the “apparent KD of MS2 coat protein” value under setting [4] amounted to 462 nM and the “apparent KD of MS2 coat protein” value (input ligand: none) was 725 nM.
